Experimental data from paper PMC10491024 (Cell reports, 2023).

B1: N751-2C06.01 IgG (antibody, V domains shown)
VH: EVQLVESGGGLVQPGGSLRLSCSASGFTFSSYAMHWVRQAPGKGLEYVSAISGNGDSTYYADSVRGRFTISRDNSKNTLYLQMSSLRAEDTAVYYCVKQAAYCTRTSCYYFDYWGQGTLVTVSS
VL: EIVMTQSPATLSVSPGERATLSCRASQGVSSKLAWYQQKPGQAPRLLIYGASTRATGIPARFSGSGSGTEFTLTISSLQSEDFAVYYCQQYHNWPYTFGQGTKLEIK
B2: N751-2C09.01 IgG (antibody, V domains shown)
VH: EVQLVESGEGLVQPGGSLRLSCAASGFTFSSHAMHWVRQAPGKGLEYVSAISSEGGSTYYADSVRGRFIISRDNSKNTLYLQMGSLRAEDMAVYYCARVTGDYNWYFDLWGRGTLVTVSS
VL: EIVMTQSPATLSVSPGERATLSCRASQGVSSNLAWYQQKPGQAPRLLIHGASTRATGSPARFSGSGSGTEFTLTISSLQSEDFAVYSCQQYHNWPWTFGQGTKVEIK

What was measured:
Conditions in all cases: both partners purified
FP8v1-rTTHC = molecular target: T1, FP8v1-rTTHC (HIV-1, fusion peptide 512-519 (BG505 …)); test: ELISA
T1 construct: also called fusion peptide
T1 chain: AVGIGAVF

FP7v1-rTTHC = molecular target: T2, FP7v1-rTTHC (HIV-1, fusion peptide 512-518); test: ELISA; plates coated with 2 μg/mL fusion peptide-rTTHC; 2C06 or 2C09 antibody serially diluted from 2 μg/mL, 1 h 37°C; anti-human IgG-HRP
T2 construct: also called shorter peptides
T2 chain: AVGIGAV

FP6v1-rTTHC = molecular target: T3, FP6v1-rTTHC (HIV-1, fusion peptide 512-517); test: as above
T3 construct: also called shorter peptides
T3 chain: AVGIGA

| Binder | binding result (FP8v1-rTTHC) | binding result (FP7v1-rTTHC) | binding result (FP6v1-rTTHC) |
| --- | --- | --- | --- |
| B1 | binds |  |  |
| B2 | binds | binds | binds |
